# Data reported in publication PMC4698733 (2016).
# B1: MEIG1 wild type, two-hybrid fusion from MEIG1/pGBKT7 [mouse] / Parkin co-regulated gene protein (PACRG), two-hybrid fusion from PACRG/pGADT7 [mouse] (parent complex)
# chain 1: MATSDVKPKSISRAKKWSEEIENLYRFQQAGYRDEIEYKQVKQVAMVDRWPETGYVKKLQRRDNTFFYYNKERECEDKEVHKVKVYVY
# chain 2: not shown
# Variants of: B1
# Assay: yeast two-hybrid, α-galactosidase activity; Yeast strain AH109 co-transformed with PACRG/pGADT7 and MEIG1/pGBKT7 plasmids; parent: 65; read off a plot
row,response,Variant
1,~81,chain 1 R13E
2,~72,chain 1 E20R
3,~15,chain 1 F66A
4,~10,chain 1 W50A
5,~85,chain 1 H81A
6,~72,chain 1 K9E
7,~22,chain 1 K57E
8,~58,chain 1 Y25A
9,~67,chain 1 R62E
10,~72,chain 1 V87A
11,~5,chain 1 Y68A
12,~67,chain 1 I36A

# Variants of: B1
# Assay: yeast two-hybrid, α-galactosidase activity; Yeast strain AH109 co-transformed with PACRG/pGADT7 and MEIG1/pGBKT7 plasmids; parent: 64; read off a plot
row,response,Variant
1,~12,chain 1 W50A
2,~2.2,"chain 1 W50A, chain 1 Y68A"
3,~3.3,chain 1 Y68A
